The source of these data is US20170173105A1, “AUTOASSEMBLING PEPTIDES FOR THE TREATMENT OF PULMONARY LEAKAGE” (3-D MATRIX, LTD., priority 2014, published 2017).

A short description of data set [1]: Rheological measurements of RADA16 mixed with salts (stiffness, reversibility, gelation kinetics). The data set is classed as physicochemical. The note with it: for gelation kinetics by ion: 0.5% RADA16; for storage modulus: (RADA)4 about 0.5 w/v percent. As to the method:
In a rheological comparison of 2.5% RADA16 and 2.5% RADA16+NaCl, KCl, and CaCl2, solutions of 0.5% RADA16 mixed with 0.005, 0.05, 0.125, 0.25, 0.5, and 1 M NaCl, KCl, and CaCl2 were prepared. The anion, chloride (Cl—), was kept the same to observe the effect of the cations, sodium (Na+), potassium (K+), and calcium (Ca2+). FIG. 21 provides a basic understanding of how varying the cations of a salt solution effects the viscoelastic properties and the stiffness of self-assembling peptides. […] This should be because Ca has […] higher ionic strength than Na and K at the same molar concentrations. Therefore, influence of salts on the peptide solution is more related to their ionic strength rather than their molar concentration, as shown in FIGS. 17-18 and Table 2a-c. In some embodiments, there is a correlation between the properties of the peptide solutions with salts based on the concentration of the salts.
Rheological measurements of stiffness of 2.5% RADA16 and 2.5% RADA16+0.25 M CaCl2 was evaluated.
Rheological measurements of reversibility of 0.5% RADA16 solution with +0.125, 0.25, and 0.5 M CaCl2 were evaluated. Solutions of 0.5% RADA16 mixed with 0.125, 0.25, and 0.5 M CaCl2 were prepared. The structure of the self-assembled peptide solution were disrupted thoroughly by application of mechanical stress through vortexing and sonication. The mixtures were placed at room temperature for 48 hours to allow self-assembly to take place. […] FIG. 23a presents raw rheological data of the control peptide solution with salts and the perturbed peptide solutions with salts while FIG. 23b provides a comparison of stiffness of the control peptide solutions and the perturbed peptide solutions.
Rheological measurements of gelation kinetics of 0.5% RADA16+NaCl, KCl, and CaCl2 were evaluated. A solution of 0.5% RADA16 was prepared and gelation kinetics were observed by treatment with several cations (e.g. Na, […], K) and anions (e.g. Cl, CO3, PO4, SO4). It was determined how long it will take for the peptide mixtures to gel and how to control that gelation time by varying the cation/anion type and concentration. […] In vivo and in vitro qualitative experiments and the resulting observations were supportive of these conclusions.
Due to the success of topically added solution of NaCl gently massaged into 2.5% RADA16 increasing the burst pressure of 2.5% RADA16, other salt based solutions were completely mixed with RADA16 and their mechanical properties were measured. […] The results can be seen in FIG. 29 with respect to the storage modulus (i.e. mechanical strength) of 0.5% PuraMatrix (RADA16) mixed with NaCl, KCl, or CaCl2 at varying concentrations.

Data set [2] is described as follows: Rheological properties of peptide solutions (1%) before and after DMEM treatment (rheometer). The data set is classed as physicochemical. The following applies: DMEM 2 minutes, compared with weaker peptide solutions (i.e. PuraMatrix®). The protocol:
The effects of Dulbecco's modified Eagle's medium (DMEM) (pH 7.4) on the rheological properties of IEIK13, KLD12, and PuraMatrix® were evaluated on a rheometer (AR500, TA Instruments) with 40 mm plates. DMEM is generally a cell culture medium that contains 6.4 g/L of NaCl, 3.4 g/L NaHCO3 (sodium bicarbonate), minor amounts of other salts, various amino acids, and 4.5 g/L of glucose. The pH level of DMEM is generally 7.2±0.2 and the osmolality is 335±30 mOsm/Kg H2O; both measurements are close to human physiological fluids such as blood.
Peptide solutions (1%) were kept at 4° C. for at least 48 hours before testing. To perform the experiment, 1 mL of peptide solution was gently pipetted and placed on the plate of the rheometer. 2 mL of DMEM solution was gently added around the peptide solution. The peptide solution was treated with DMEM for two minutes, then the media was removed, and the plates were placed at a measuring geometry gap at around 450 μm. Measurements were performed at 37° C. after 2 min of relaxation time. Frequency tests were performed from 1 rad/s to 100 rad/s at 1 Pa of oscillation stress.
The rheological properties of the peptides (1%) were compared before and after DMEM treatment for 2 minutes, as shown in FIG. 1A. […]

Consider “Arg-Ala-Asp-Ala-Arg-Ala-Asp-Ala-Arg-Ala-Asp-Ala-Arg-Ala-Asp-Ala [PuraMatrix ®]”, for which, in data set [1] (0.5% PuraMatrix (RADA16) mixed with salts at varying concentrations), the “mechanical properties (storage modulus) with calcium chloride compared with sodium chloride or potassium chloride” value is recorded as “greater mechanical properties”. Moreover, the figures for the “gelation kinetics by ion” value in data set [1] (treatment with chlorine) and in data set [1] (treatment with sulfate) were “quickest gelation” and “slowest gelation”, respectively. In addition, in data set [1] (0.5% RADA16 with CaCl2 within the optimal salt concentration range, vortexing and sonication, 48 hours room temperature), the reversibility after perturbation entry is listed as “remained reversible”. In addition, the “stiffness with added CaCl2 compared with peptide alone” value in data set [1] (2.5% RADA16 vs 2.5% RADA16 with CaCl2 (0.25 M / 0.125 M printed)) is “noticeable increase in stiffness”. For the same substance, the values for the storage modulus entry in data set [1] (calcium chloride about 0.125 M), in data set [1] (calcium chloride about 0.250 M) and in data set [1] (calcium chloride about 0.500 M) were “about 25 Pa”, “about 44 Pa” and “about 52 Pa”, respectively. The “enhancement of stiffness by cations” value in data set [1] (RADA16 mixed with NaCl, KCl, CaCl2 at the same molar concentrations (0.005-1 M)) is “Ca provided the best enhancement of stiffness”.
For the substance “Ile-Glu-Ile-Lys-Ile-Glu-Ile-Lys-Ile-Glu-Ile-Lys-Ile [IEIK13]”, the “fold increase of storage modulus after DMEM treatment” value in data set [2] was “lower-fold increase”.
